Data reported in paper PMC10953559, “Native Capillary Electrophoresis–Mass Spectrometry of Near 1 MDa Non‐Covalent GroEL/GroES/Substrate Protein Complexes” (Advanced Science, 2024).

B1: double-ring (DR) mutant GroEL 14-mer (mutant GroEL14) (natural protein, E. coli, UniProt P0A6F5 2-548, looked up)
chain: AAKDVKFGNDARVKMLRGVNVLADAVKVTLGPKGRNVVLDKSFGAPTITKDGVSVAREIELEDKFENMGAQMVKEVASKANDAAGDGTTTATVLAQAIITEGLKAVAAGMNPMDLKRGIDKAVTAAVEELKALSVPASDSKAIAQVGTISANSDETVGKLIAEAMDKVGKEGVITVEDGTGLQDELDVVEGMQFDRGYLSPYFINKPETGAVELESPFILLADKKISNIREMLPVLEAVAKAGKPLLIIAEDVEGEALATLVVNTMRGIVKVAAVKAPGFGDRRKAMLQDIATLTGGTVISEEIGMELEKATLEDLGQAKRVVINKDTTTIIDGVGEEAAIQGRVAQIRQQIEEATSDYDREKLQERVAKLAGGVAVIKVGAATEVEMKEKKARVEDALHATRAAVEEGVVAGGGVALIRVASKLADLRGQNEDQNVGIKVALRAMEAPLRQIVLNAGEEPSVVANTVKGGDGNYGYNAATEEYGNMIDMGILDPTKVTRSALQYAASVAGLMITTEAMVTDLPKNDAADLGAAGGMGGMGGMGGMC
notes: GroEL, E. coli, UniProtKB P0A6F5, with four mutations made by QuikChange from the WT GroEL gene; the measured mass fits 14 monomers with the N-terminal methionine cleaved; numbers count the first methionine; also called DR GroEL14; source: E. coli BL21 (DE3) Gold, purified from the soluble fraction (chromatography, size exclusion); copies: 14

Experiments:
[1] = molecular target: the molecule itself; test: native MS; capillary electrophoresis online with native ESI-MS (CE-MS) of the oligomer; bare fused silica capillary, BGE 50 mM ammonium acetate pH 6.7, 20 kV reverse polarity, cartridge 15 °C, in-source desolvation 100 V; sample diluted in 50 mM Tris-HCl pH 7.5, 50 mM KCl, 15 mM MgCl2
[2] = molecular target: B1; test: native MS; CE-MS; GroEL14 (6 µM) and GroES7 (6 µM) injected; BGE 50 mM ammonium acetate pH 6.7 with 10 to 50 µM ATPγS and 15 to 75 µM Mg2+; conditions: both partners purified

Binder	stoichiometry N [1] [subunits]	stoichiometry N [2] [GroES7 per GroEL14]
B1	14	–
single-ring (SR) mutant GroEL 7-mer (GroEL7) (natural protein, E. coli, UniProt P0A6F5 2-548, looked up, GroEL, E. coli, UniProtKB P0A6F5, with four mutations made by QuikChange from the WT GroEL gene; theoretical mass quoted for 7 monomers with the N-terminal methionine cleaved; numbers count the first methionine; also called SR GroEL7; mutant SR; source: E. coli BL21 (DE3) Gold, purified from the soluble fraction (chromatography, size exclusion)) AAKDVKFGNDARVKMLRGVNVLADAVKVTLGPKGRNVVLDKSFGAPTITKDGVSVAREIELEDKFENMGAQMVKEVASKANDAAGDGTTTATVLAQAIITEGLKAVAAGMNPMDLKRGIDKAVTAAVEELKALSVPCSDSKAIAQVGTISANSDETVGKLIAEAMDKVGKEGVITVEDGTGLQDELDVVEGMQFDRGYLSPYFINKPETGAVELESPFILLADKKISNIREMLPVLEAVAKAGKPLLIIAEDVEGEALATLVVNTMRGIVKVAAVKAPGFGDRRKAMLQDIATLTGGTVISEEIGMELEKATLEDLGQAKRVVINKDTTTIIDGVGEEAAIQGRVAQIRQQIEEATSDYDREKLQERVAKLAGGVAVIKVGAATEVEMKEKKARVEDALHATRAAVEEGVVAGGGVALIRVASKLADLRGQNEDQNVGIKVALRAMEAPLEQIVLNCGEAPAAVANTVKGGDGNYGYNAATEEYGNMIDMGILDPTKVTRSALQYAASVAGLMITTECMVTDLPKNDAADLGAAGGMGGMGGMGGMM	7	–
N-acetyl neuraminic acid aldolase, native tetramer (NanA4) (enzyme, E. coli, UniProt P0A6L4 2-297, looked up, N-acetyl neuraminic acid aldolase NanA, E. coli, WT monomer; the theoretical mass quoted for the detected tetramer (129 849.09 Da) is that with the N-terminal methionine cleaved; also called tetrameric NanA4; source: E. coli BL21 (DE3) Gold, purified from the soluble fraction (chromatography, size exclusion)) ATNLRGVMAALLTPFDQQQALDKASLRRLVQFNIQQGIDGLYVGGSTGEAFVQSLSEREQVLEIVAEEAKGKIKLIAHVGCVSTAESQQLAASAKRYGFDAVSAVTPFYYPFSFEEHCDHYRAIIDSADGLPMVVYNIPALSGVKLTLDQINTLVTLPGVGALKQTSGDLYQMEQIRREHPDLVLYNGYDEIFASGLLAGADGGIGSTYNIMGWRYQGIVKALKEGDIQTAQKLQTECNKVIDLLIKTGVFRGLKTVLHYMDVVSVPLCRKPFGPVDEKYLPELKALAQQLMQERG	4	–
co-chaperonin GroES 7-mer (GroES7) (natural protein, E. coli, UniProt P0A6F9 1-97, looked up, GroES, E. coli, WT monomer; the measured mass fits the non-truncated form (N-terminal methionine kept); also called apo-GroES7; source: E. coli BL21 (DE3) Gold, purified from the soluble fraction (chromatography, size exclusion)) MNIRPLHDRVIVKRKEVETKSAGGIVLTGSAAAKSTRGEVLAVGNGRILENGEVKPLDVKVGDIVIFNDGYGVKSEKIDNEEVLIMSESDILAIVEA	7	1
